Results published in paper doi:10.1101/2022.02.02.478874 (bioRxiv, 2022).

T1: ^mChSpindly^ΔRV (human, UniProt Q96EA4 1-605, ΔRV (residues R154-V155))
T1 sequence: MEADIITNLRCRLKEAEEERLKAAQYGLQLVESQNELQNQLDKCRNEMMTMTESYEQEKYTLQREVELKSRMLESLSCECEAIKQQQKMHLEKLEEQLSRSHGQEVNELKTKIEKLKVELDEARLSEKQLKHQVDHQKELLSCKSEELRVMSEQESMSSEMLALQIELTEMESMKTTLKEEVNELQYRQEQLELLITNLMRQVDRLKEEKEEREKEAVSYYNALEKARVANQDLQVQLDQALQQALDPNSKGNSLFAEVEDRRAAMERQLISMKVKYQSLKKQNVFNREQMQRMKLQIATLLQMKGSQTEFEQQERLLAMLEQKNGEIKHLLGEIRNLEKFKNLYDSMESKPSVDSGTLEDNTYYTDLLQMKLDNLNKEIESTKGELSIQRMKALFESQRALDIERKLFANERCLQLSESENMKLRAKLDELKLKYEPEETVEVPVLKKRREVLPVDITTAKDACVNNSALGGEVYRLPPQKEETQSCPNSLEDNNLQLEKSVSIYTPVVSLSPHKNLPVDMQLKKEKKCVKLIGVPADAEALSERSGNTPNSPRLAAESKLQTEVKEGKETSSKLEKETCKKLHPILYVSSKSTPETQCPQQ

B1: ^mChSpindly^CC2* (R295E-K297E) (natural protein)
chain: MEADIITNLRCRLKEAEEERLKAAQYGLQLVESQNELQNQLDKCRNEMMTMTESYEQEKYTLQREVELKSRMLESLSCECEAIKQQQKMHLEKLEEQLSRSHGQEVNELKTKIEKLKVELDEARLSEKQLKHQVDHQKELLSCKSEELRVMSERVQESMSSEMLALQIELTEMESMKTTLKEEVNELQYRQEQLELLITNLMRQVDRLKEEKEEREKEAVSYYNALEKARVANQDLQVQLDQALQQALDPNSKGNSLFAEVEDRRAAMERQLISMKVKYQSLKKQNVFNREQMQEMELQIATLLQMKGSQTEFEQQERLLAMLEQKNGEIKHLLGEIRNLEKFKNLYDSMESKPSVDSGTLEDNTYYTDLLQMKLDNLNKEIESTKGELSIQRMKALFESQRALDIERKLFANERCLQLSESENMKLRAKLDELKLKYEPEETVEVPVLKKRREVLPVDITTAKDACVNNSALGGEVYRLPPQKEETQSCPNSLEDNNLQLEKSVSIYTPVVSLSPHKNLPVDMQLKKEKKCVKLIGVPADAEALSERSGNTPNSPRLAAESKLQTEVKEGKETSSKLEKETCKKLHPILYVSSKSTPETQCPQQ

Legend:
^mChSpindly^ΔRV = molecular target: T1, ^mChSpindly^ΔRV; assay: pull-down
[1] = molecular target: B1; assay: pull-down
mass photometry = molecular target: the molecule itself; assay: mass photometry
[2] = molecular target: ROD-Zwilch-ZW10 (RZZ) complex with mCherry on ROD (UniProt P50748;Q9H900;O43264); assay: SEC
ROD-Zwilch-ZW10 (RZZ) complex with mCherry on ROD, sequence (P50748 whole entry, chain 1 of 3): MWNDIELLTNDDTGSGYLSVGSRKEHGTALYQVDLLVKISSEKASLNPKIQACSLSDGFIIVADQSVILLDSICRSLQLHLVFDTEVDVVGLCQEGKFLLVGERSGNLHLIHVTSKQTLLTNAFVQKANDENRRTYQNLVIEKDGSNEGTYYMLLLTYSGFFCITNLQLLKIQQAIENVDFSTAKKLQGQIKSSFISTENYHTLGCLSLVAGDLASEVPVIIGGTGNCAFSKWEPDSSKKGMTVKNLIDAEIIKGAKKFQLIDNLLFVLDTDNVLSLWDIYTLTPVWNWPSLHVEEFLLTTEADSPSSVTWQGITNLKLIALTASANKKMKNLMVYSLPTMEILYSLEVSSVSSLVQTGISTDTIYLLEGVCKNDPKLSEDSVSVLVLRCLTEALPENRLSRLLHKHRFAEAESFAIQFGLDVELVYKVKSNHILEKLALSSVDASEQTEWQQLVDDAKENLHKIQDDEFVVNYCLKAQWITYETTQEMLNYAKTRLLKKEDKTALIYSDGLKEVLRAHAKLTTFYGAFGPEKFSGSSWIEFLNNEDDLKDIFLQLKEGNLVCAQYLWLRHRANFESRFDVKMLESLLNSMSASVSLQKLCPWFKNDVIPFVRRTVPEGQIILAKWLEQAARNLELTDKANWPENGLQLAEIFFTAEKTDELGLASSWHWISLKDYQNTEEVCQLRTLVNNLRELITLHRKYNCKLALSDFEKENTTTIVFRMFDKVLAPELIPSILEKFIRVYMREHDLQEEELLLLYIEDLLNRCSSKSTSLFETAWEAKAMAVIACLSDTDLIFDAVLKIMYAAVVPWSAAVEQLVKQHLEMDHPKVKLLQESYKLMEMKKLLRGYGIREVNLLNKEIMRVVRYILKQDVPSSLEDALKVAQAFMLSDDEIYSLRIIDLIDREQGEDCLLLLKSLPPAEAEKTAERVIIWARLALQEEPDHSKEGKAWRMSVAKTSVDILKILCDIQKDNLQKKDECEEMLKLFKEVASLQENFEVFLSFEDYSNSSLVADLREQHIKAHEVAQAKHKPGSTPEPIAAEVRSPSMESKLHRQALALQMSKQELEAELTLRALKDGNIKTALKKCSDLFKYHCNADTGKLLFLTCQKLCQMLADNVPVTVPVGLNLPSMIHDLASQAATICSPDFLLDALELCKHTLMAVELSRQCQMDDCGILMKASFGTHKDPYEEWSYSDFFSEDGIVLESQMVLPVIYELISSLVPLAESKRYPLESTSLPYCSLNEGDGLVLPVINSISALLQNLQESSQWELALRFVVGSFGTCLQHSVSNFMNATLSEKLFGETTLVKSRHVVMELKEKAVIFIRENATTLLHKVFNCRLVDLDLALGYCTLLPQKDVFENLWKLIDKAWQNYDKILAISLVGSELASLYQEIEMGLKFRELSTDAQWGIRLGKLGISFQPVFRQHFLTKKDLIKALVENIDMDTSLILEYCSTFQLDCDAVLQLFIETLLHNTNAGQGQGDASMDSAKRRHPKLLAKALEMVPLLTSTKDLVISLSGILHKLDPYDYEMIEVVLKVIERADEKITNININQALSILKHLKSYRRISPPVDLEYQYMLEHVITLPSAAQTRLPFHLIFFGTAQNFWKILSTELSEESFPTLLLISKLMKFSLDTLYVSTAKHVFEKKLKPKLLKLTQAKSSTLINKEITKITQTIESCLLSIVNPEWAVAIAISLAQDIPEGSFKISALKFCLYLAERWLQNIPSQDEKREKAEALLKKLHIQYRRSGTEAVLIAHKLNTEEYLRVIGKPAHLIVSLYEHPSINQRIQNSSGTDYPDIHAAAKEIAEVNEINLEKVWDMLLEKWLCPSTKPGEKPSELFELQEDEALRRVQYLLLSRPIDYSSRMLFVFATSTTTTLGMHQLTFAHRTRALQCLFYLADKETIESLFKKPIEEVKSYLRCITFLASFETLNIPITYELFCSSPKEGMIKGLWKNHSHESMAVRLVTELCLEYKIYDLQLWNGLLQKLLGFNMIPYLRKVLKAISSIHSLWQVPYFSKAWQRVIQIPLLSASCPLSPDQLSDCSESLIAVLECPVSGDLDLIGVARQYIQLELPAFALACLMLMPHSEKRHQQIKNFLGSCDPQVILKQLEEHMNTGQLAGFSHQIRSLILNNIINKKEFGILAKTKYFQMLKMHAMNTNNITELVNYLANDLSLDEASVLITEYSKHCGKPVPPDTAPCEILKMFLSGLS
ROD-Zwilch-ZW10 (RZZ) complex with mCherry on ROD, sequence (Q9H900 whole entry, chain 2 of 3): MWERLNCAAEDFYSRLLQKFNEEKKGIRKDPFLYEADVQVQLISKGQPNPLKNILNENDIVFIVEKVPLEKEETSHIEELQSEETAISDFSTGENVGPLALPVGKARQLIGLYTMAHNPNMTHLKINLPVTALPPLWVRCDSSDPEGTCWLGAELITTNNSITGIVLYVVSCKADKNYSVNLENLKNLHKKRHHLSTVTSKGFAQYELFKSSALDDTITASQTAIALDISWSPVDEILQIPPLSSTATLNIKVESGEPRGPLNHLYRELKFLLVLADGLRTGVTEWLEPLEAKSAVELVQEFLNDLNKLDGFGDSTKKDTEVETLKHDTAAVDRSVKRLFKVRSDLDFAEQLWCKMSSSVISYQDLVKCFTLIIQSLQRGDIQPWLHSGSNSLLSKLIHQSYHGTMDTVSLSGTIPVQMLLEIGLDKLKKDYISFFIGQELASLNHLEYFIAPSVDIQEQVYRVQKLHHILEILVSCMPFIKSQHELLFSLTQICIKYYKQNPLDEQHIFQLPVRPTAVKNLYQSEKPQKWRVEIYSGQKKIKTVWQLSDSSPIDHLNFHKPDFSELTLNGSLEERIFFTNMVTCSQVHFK
ROD-Zwilch-ZW10 (RZZ) complex with mCherry on ROD, sequence (O43264 whole entry, chain 3 of 3): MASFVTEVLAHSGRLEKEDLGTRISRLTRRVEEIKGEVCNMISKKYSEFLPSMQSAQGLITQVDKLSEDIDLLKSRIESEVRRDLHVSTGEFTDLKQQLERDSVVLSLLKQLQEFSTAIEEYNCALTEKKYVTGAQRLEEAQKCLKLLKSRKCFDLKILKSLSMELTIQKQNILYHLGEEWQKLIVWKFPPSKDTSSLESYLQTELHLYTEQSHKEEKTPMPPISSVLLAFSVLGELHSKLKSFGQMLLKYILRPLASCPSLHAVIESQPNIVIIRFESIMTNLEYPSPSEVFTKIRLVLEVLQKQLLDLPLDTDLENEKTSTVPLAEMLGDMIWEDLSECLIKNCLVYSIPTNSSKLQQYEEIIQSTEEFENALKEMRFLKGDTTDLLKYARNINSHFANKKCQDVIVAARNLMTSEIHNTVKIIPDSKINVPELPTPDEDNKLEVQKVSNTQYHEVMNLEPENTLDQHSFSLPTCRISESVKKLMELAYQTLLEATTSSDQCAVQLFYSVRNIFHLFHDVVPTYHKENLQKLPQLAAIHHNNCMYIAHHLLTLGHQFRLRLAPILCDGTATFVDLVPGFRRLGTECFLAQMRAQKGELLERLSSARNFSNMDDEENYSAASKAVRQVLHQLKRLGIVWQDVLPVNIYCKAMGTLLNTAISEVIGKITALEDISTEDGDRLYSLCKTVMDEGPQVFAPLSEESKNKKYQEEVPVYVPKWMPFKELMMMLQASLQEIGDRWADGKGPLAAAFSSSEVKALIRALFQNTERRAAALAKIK

binding result (^mChSpindly^ΔRV)	binding result [1]	binding result [2]	Binder	stoichiometry N (mass photometry)
binds	binds	–	GST-tagged LIC2 (Dynein light intermediate chain 2) (natural protein) MAPVGVEKKLLLGPNGPAVAAAGDLTSEEEEGQSLWSSILSEVSTRARSKLPSGKNILVFGEDGSGKTTLMTKLQGAEHGKKGRGLEYLYLSVHDEDRDDHTRCNVWILDGDLYHKGLLKFAVSAESLPETLVIFVADMSRPWTVMESLQKWASVLREHIDKMKIPPEKMRELERKFVKDFQDYMEPEEGCQGSPQRRGPLTSGSDEENVALPLGDNVLTHNLGIPVLVVCTKCDAVSVLEKEHDYRDEHLDFIQSHLRRFCLQYGAALIYTSVKEEKNLDLLYKYIVHKTYGFHFTTPALVVEKDAVFIPAGWDNEKKIAILHENFTTVKPEDAYEDFIVKPPVRKLVHDKELAAEDEQVFLMKQQSLLAKQPATPTRASESPARGPSGSPRTQGRGGPASVPSSSPGTSVKKPDPNIKNNAASEGVLASFFNSLLSKKTGSPGSPGAGGVQSTAKKSGQKTVLSNVQEELDRMTRKPDSMVTNSSTENEA	–
–	–	binds	B1	2
